Experimental data reported in US20150377889.

What was measured:
[1] = system: recombinant wild type full-length human galectin-3, His-tagged (unphosphorylated)
[2] = system: recombinant wild type galectin-3 phosphorylated in vitro by c-Abl (galectin-3 Tyr(P)-107), His-tagged
[3] = system: galectin-3 secreted by PC3M cells after EGF (and PDGF) treatment, tyrosine phosphorylated (galectin-3 Tyr(P)-107)
Sequence of galectin-3 secreted by PC3M cells after EGF (and PDGF) treatment, tyrosine phosphorylated (galectin-3 Tyr(P)-107) (chain, as listed by the source): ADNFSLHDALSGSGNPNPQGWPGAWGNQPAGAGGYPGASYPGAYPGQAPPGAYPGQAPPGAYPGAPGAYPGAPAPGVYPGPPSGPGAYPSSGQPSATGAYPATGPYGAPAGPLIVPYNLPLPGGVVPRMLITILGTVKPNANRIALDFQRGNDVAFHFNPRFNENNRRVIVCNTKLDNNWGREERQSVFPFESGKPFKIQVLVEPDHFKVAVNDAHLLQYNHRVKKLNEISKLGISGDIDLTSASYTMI

Sequence of recombinant wild type galectin-3 phosphorylated in vitro by c-Abl (galectin-3 Tyr(P)-107), His-tagged (chain, as listed by the source): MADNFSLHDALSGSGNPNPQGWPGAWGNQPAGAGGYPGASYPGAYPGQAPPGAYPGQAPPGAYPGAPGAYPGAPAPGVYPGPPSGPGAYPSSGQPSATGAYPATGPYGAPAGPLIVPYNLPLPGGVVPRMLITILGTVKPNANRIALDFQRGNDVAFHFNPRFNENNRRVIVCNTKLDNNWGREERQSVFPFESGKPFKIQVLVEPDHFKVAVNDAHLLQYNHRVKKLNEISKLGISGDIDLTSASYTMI

active prostate specific antigen (PSA)
cleavage of galectin-3 by PSA (2 h at room temperature, Western blot with anti-galectin-3 antibody) [1]: FIG. 1A demonstrated that phosphorylation of Tyr-107 blocks the cleavage of galectin-3 by PSA | cleavage of galectin-3 by PSA (2 h at room temperature, Western blot with anti-galectin-3 and anti-Tyr(P) antibodies) [2]: phosphorylation of Tyr-107 blocks the cleavage of galectin-3 by PSA

phosphatase and tensin homolog (PTEN)
dephosphorylation of galectin-3 Tyr(P)-107 (PTEN for 2 hr at 30 C, pTyr and Gal-3 blots) [2]: This was then proven by phosphorylating galectin-3 in vitro with active c-Abl and then treating it with PTEN

endogenous PSA secreted by LNCaP cells
cleavage of secreted galectin-3 in conditioned medium of LNCaP/PC3M co-culture with and without EGF (Western blot with HL31) [3]: phosphorylation blocks cleavage of galectin-3 in conditioned medium
